According to the supplement of paper PMC10126150:
± gives the standard deviation of the averaged measurements.

Tested on: ATP
Experiment: switch fluorescence ratio, 500 uM ATP over buffer (Cy3 cluster intensity, sum of 5 cycles each) (fold (ratio)); higher = stronger signal-on switching upon ATP binding; sequences stand for … in TCGTCGGCAGCGTCAGATGTGTATAAGAGACAGTTTTTTTTTTTTTTTTTTTTTTTTT…TC
Conditions: aptamer strand: ATP DNA aptamer (quencher-CACCTGGGGGAGTATTGCGGAGGAAGG + anchor), 100 nM annealed; ATP concentration: 500 uM
In short: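 After annealing to 100 nM quencher-labelled ATP aptamer, Cy3-labelled switching-strand clusters on a modified Illumina MiSeq flow-cell were imaged in selection buffer. A second image followed after 15 min with 500 uM ATP at 22 °C, and five such buffer/ATP cycles were done, each separated by NaOH stripping and re-annealing. The fluorescence ratio, averaged per switch-domain sequence, is summed target-cycle over summed buffer-cycle Cy3 intensity per cluster, with clusters outside 100-1000 RFU excluded.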
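Note: ATP exposure 15 min at 22 °C before imaging.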

| Sequence | switch fluorescence ratio |
| --- | --- |
| ATTAAATAGC | 1.03 ± 0.043 |
| ATTAAATGAG | 1.01 ± 0.022 |
| ATTAAGCCAC | 1.12 ± 0.053 |
| ATTAAGTTTG | 1 ± 0.031 |
| ATTAATCTTG | 1.03 ± 0.046 |
| ATTAATGCGG | 1.07 ± 0.032 |
| ATTAATTCCG | 1.02 ± 0.0097 |
| ATTACACTGC | 1.01 ± 0.066 |
| ATTACATTTT | 1.03 ± 0.031 |
| ATTACTCACC | 1.44 ± 0.03 |
| ATTAGACATT | 1.003 ± 0.0016 |
| ATTAGAGGGA | 1.01 ± 0.029 |
| ATTAGAGGTG | 1.08 ± 0.03 |
| ATTAGCATCG | 0.981 ± 0.026 |
| ATTAGGCAAT | 1.22 ± 0.061 |
| ATTAGGTCTG | 0.941 ± 0.044 |
| ATTAGTAACG | 1.03 ± 0.0071 |
| ATTAGTAAGG | 1.01 ± 0.011 |
| ATTAGTGATC | 1.003 ± 0.0011 |
| ATTAGTTAGC | 1.01 ± 0.05 |
| ATTAGTTATA | 0.975 ± 0.029 |
| ATTAGTTGGA | 0.99 ± 0.024 |
| ATTAGTTGGC | 0.993 ± 0.027 |
| ATTATAGGGT | 1.03 ± 0.026 |
| ATTATAGGTT | 0.996 ± 0.0091 |
| ATTATAGTCG | 1.01 ± 0.036 |

| Sequence | switch fluorescence ratio |
| --- | --- |
| ATTATATAAT | 1.01 ± 0.046 |
| ATTATCTAGG | 0.985 ± 0.013 |
| ATTATGAACC | 1.04 ± 0.016 |
| ATTATGAATG | 0.989 ± 0.0071 |
| ATTATGGGGT | 1 ± 0.017 |
| ATTATGTCCA | 0.96991 ± 0.00059 |
| ATTATTAGGA | 1.04 ± 0.088 |
| ATTATTATGT | 0.978 ± 0.01 |
| ATTATTTTAT | 1.05 ± 0.069 |
| ATTCAATCGA | 1.018 ± 0.0031 |
| ATTCACTTGA | 1.08 ± 0.061 |
| ATTCAGGTC | 1 ± 0.038 |
| ATTCATATTG | 1.01 ± 0.042 |
| ATTCATGGGG | 0.98 ± 0.019 |
| ATTCATTAGG | 1.02 ± 0.034 |
| ATTCATTTAG | 0.996 ± 0.013 |
| ATTCCATGGT | 0.9909 ± 0.0052 |
| ATTCCCCGGG | 1.66 ± 0.68 |
| ATTCCCGGAT | 1.04 ± 0.046 |
| ATTCCGTATA | 1.25 ± 0.022 |
| ATTCCTAGA | 0.992 ± 0.021 |
| ATTCCTGTT | 1.004 ± 0.0019 |
| ATTCGAGGGG | 1.03 ± 0.061 |
| ATTCGCAGCC | 1.55 ± 0.029 |
| ATTCGCCGGT | 0.959 ± 0.0066 |
| ATTCGCCTAG | 0.987 ± 0.012 |

| Sequence | switch fluorescence ratio |
| --- | --- |
| ATTCGGGCTT | 0.976 ± 0.013 |
| ATTCGGGGGC | 1.11 ± 0.2 |
| ATTCGGTCAT | 1 ± 0.015 |
| ATTCGTTGTT | 0.997 ± 0.01 |
| ATTCGTTTTG | 1.03 ± 0.017 |
| ATTCTCGTTA | 0.996 ± 0.0053 |
| ATTCTCTTAT | 1.02 ± 0.059 |
| ATTCTGGAAT | 1.02 ± 0.06 |
| ATTCTGGGGT | 1.04 ± 0.07 |
| ATTCTGTTAG | 0.993 ± 0.0092 |
| ATTCTTAGGG | 1.12 ± 0.27 |
| ATTCTTATTG | 0.9801 ± 0.0021 |
| ATTCTTCTTA | 1.028 ± 0.0033 |
| ATTCTTTACG | 1.03 ± 0.015 |
| ATTCTTTGGG | 1.01 ± 0.02 |
| ATTCTTTTTT | 0.997 ± 0.024 |
| ATTGAACAT | 0.984 ± 0.015 |
| ATTGAACGTT | 0.979 ± 0.015 |
| ATTGAAGCGG | 1.01 ± 0.05 |
| ATTGAATGTG | 0.973 ± 0.013 |
| ATTGAATTTG | 0.9999 ± 0.0013 |
| ATTGAGAAGT | 0.996 ± 0.031 |
| ATTGAGAATC | 0.962 ± 0.035 |
| ATTGAGATCG | 1.01 ± 0.033 |
| ATTGAGGGAG | 1 ± 0.024 |
